{
  "source": "patent US20110020786A1",
  "about": "(BAYLOR COLLEGE OF MEDICINE, published 2011)",
  "key": {"[1]": {"target": "T1, Norwalk virus-like particles (genogroup I) (Norwalk virus (genogroup I Norovirus), UniProt Q83884 1-530)", "T1 construct": "also called NV; NVLPs", "T1 sequence": "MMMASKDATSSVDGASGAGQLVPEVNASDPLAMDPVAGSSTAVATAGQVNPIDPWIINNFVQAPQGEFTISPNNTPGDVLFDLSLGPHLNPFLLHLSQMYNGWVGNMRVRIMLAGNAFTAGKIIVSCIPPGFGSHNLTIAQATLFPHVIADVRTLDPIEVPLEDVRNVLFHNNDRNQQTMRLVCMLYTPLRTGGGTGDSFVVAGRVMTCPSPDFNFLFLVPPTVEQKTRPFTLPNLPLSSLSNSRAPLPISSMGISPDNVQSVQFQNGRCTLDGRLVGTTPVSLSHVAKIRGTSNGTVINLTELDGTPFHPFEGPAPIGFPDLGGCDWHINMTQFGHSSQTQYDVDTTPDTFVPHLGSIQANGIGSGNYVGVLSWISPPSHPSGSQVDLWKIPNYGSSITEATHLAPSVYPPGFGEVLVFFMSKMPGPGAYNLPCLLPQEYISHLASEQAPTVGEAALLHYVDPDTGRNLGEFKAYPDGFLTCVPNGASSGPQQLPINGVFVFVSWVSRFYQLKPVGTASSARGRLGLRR", "test": "ELISA: dendrimer coated, VLPs added, detection with MAb3912 and goat anti-mouse-HRP, ABTS at 405 nm"}, "[2]": {"target": "T2, Snow Mountain virus-like particles (genogroup II) (Norovirus genogroup II, Snow Mountain …)", "T2 construct": "Recombinant VLP; also called SMV", "test": "SPR (BIAcore), VLPs immobilized, dendrimer injected"}, "[3]": {"target": "T3, Houston virus-like particles (genogroup II) (Norovirus genogroup II, Houston strain)", "T3 construct": "Recombinant VLP; also called HOV", "test": "SPR (BIAcore), VLPs immobilized, dendrimer injected"}, "[4]": {"target": "T4, Grimsby virus-like particles (genogroup II) (Norovirus genogroup II, Grimsby strain)", "T4 construct": "Recombinant VLP; also called GRV", "test": "SPR (BIAcore), VLPs immobilized, dendrimer injected"}, "[5]": {"target": "T1, Norwalk virus-like particles (genogroup …)", "test": "SPR (BIAcore), VLPs immobilized, dendrimer injected"}, "[6]": {"target": "T1, Norwalk virus-like particles (genogroup …)", "test": "ELISA: dendrimer coated at 0.4 mg/mL (32 µM), VLPs added at 2 µg/mL, detection with MAb3912 and goat anti-mouse-HRP, ABTS at 405 nm"}},
  "note": "Ends that are not written are not given here.",
  "data": [
    {"binder": "SREPQYGGPAAD (also called nonspecific octovalent dendrimer)", "note": "[SREPQYGGPAAD8 (the octovalent dendrimer of SEQ ID NO: 5)]", "values": [
      {"measurement": "binding result", "setting": "[1]", "result": "no binding"}
    ]},
    {"binder": "AHFQTHTVPLSL (also: octovalent MAP dendrimer, eight copies on branching lysine core, Octovalent peptide dendrimer (MAP))", "note": "[AHFQTHTVPLSL8 (the octovalent dendrimer of SEQ ID NO: 2)]", "values": [
      {"measurement": "equilibrium average response", "setting": "[2]", "result": 6430, "unit": "RU"},
      {"measurement": "equilibrium average response", "setting": "[3]", "result": 6710, "unit": "RU"},
      {"measurement": "equilibrium average response", "setting": "[4]", "result": 6380, "unit": "RU"},
      {"measurement": "equilibrium average response", "setting": "[5]", "result": 6750, "unit": "RU"}
    ]},
    {"binder": "RHFQTHTVPLSL (also: octovalent MAP dendrimer, eight copies on branching lysine core, Octovalent peptide dendrimer (MAP))", "note": "[RHFQTHTVPLSL8 (the octovalent dendrimer of SEQ ID NO: 1)]", "values": [
      {"measurement": "binding result", "setting": "[6]", "result": "binds"}
    ]}
  ]
}
